In the nanobody polyreactivity screen of Harvey et al. (2022):

Assay: yeast display, Sf9 membrane polyspecificity reagent, FACS + sequencing; frameworks hold sequencing errors
In short: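 In a synthetic yeast display library (Saccharomyces cerevisiae BJ5465), nanobody expression was induced with galactose for 36–48 hours. FACS gates were set low and high (top ~1%) using anti-HA fluorescence for expression and streptavidin fluorescence for binding of the Sf9 membrane reagent. Each polyreactivity label is drawn from the gate of origin.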

Sequence	polyreactivity (PSR sort gate)
QVQLVESGGGLVQAGGSLRLICAASGRTFYVYAMAWYRQEPGKERELVAAISKSGGSTYYADSVKGRFTISRDNAKNSVYLPMNSLKPEDTAGYYCNRYRFVRQVRGGGLPYDYWGQGTQVTVSS	high polyreactivity
QVQLVESGGGLVQAGGSLRLICAASGRTIGRNAMRWSRQAPGKERELVAAISSSGGSTYYADSVKGRFTISRDKAKNTVYLQMNSLKPEDTAVYYCNARGWYGLRKYYYWGQGTQVTVSS	high polyreactivity
QVQLVESGGGLVQAGGSLRLICAASGRTIRYYAMGWYRQAPGKERELVAAITQNGGRTYYADSVKGRFTISRDNAKNTVYLQMNSLKPEDTAVYYCAKAFIQPGDKYDSWGQGTQVTVSS	high polyreactivity
QVQLVESGGGLVQAGGSLRLICAASGRTLGYNARGWYRQAPGKETELVAAISYGGGGTYYADSVKGRFTISRDNAKNTVYLQMNSLKPEDTAVYYCAKPRAFVGYNHWGQGTQVTVSS	low polyreactivity
QVQLVESGGGLVQAGGSLRLICAASGRTLSGYAMGWYRQAPGKDRELVAVITSGGSTYYADSVKGRFTISRDNAKNTVYLQMNSLKPEDTAVYYCAARGSRLYSSWRGVYWGQGTQVTVSS	high polyreactivity
QVQLVESGGGLVQAGGSLRLICAASGRTSYTYVMGWYRQAPGKERELVAAIRLSGGNTYYADSVKGRFTISRDNAKNTVYLQMNSLKPEDTAVYYCAAQYWRHRKAYGYWGQGSQVTVSS	high polyreactivity
QVQLVESGGGLVQAGGSLRLICAASGRTYDKYVMGWYRQAPGKERELVSAISFRGVRTYYADSVKGRFTISRDNAKNTFYLQKNSLKPEDTGVYYCAARFTFSAIIGPYGYWGQGTQVTVSS	high polyreactivity
QVQLVESGGGLVQAGGSLRLICAASGSIFAGNAMGWYRQAPGKERELVAAITWSGGSTYYADSVKGRFTISRDNAKNTVYLQMNSLKPEDTAVYYCAAPTQADVVGYDYWGQGTQVTVSS	low polyreactivity
QVQLVESGGGLVQAGGSLRLICAASGSIFDWNAMGWYRQAPGKERELVATISWDGGSTYYADSVKGRFTISRDNAKNTVYLQMNSLKPEDTAVYYCATVFTGKPAYYARTKYDYWGQGTQVNVSS	low polyreactivity
QVQLVESGGGLVQAGGSLRLICAASGSIFFPYDMGWYRQAPGKERELVASITRAGSTNYADSVKGRFTISRDNAKNTVYLQMNSLKPEDTAVYYCAARNYRQFEYGYWGQGTQVTVSS	low polyreactivity
QVQLVESGGGLVQAGGSLRLICAASGSIFGHNAMGWYRQAPGKERELVAAINASDGNTYYADSVKGRFTISRDNAKNTVYLQMNSLKPEDTAVYYCAAEGYFDHYYYYRVYSWGQGTQVTVSS	low polyreactivity
QVQLVESGGGLVQAGGSLRLICAASGSIFGLYAMGWYRPAPGKEREFVASITYSGGSTYYADSVKGRFTISRDNAKNTVYLQMNSLKPEDTAVYYCAAESYWGYDYWGQGTQVTVSS	high polyreactivity
QVQLVESGGGLVQAGGSLRLICAASGSIFGSSAMGWYRQAPGKERSTYYADSVKGRFTISRDNAKNTVYLQMNSLKPEDTAVYYCAADTYGYQGSAGGHWGQGTQVTVSS	low polyreactivity
QVQLVESGGGLVQAGGSLRLICAASGSIFIGNTMGWYRQAPGKERELVATIRRSGSRTYYADSVKGRFTISRDNAKNTVYLQMNSLKPEDPAVYYCNAEGVGRYSPVSHTFDYWGQGTQVTLSS	low polyreactivity
QVQLVESGGGLVQAGGSLRLICAASGSIFITNAMGWYRQAPGKEREMVAAISGRGGSTYYADSVKGRFTISRDNAKNTVYLQMNSLKPEDTAVYYCNAYSYRVSGYDYWGQGTQVTVSS	high polyreactivity
QVQLVESGGGLVQAGGSLRLICAASGSIFITYAMGWSRQAPGKERELVAAIRRGGRTNYADSVKGRFTISRDNAKNTVYLQMNSLKPEDTAVYYCAAEFHTGWPYYPDYAYDYWGQGTQVTVSS	low polyreactivity
QVQLVESGGGLVQAGGSLRLICAASGSIFKIYAMGWYRQAPGKERELVARITRRGGRTNYADSVKGRFTISRDNAKNTVYLQINSLKPEDTAVYYCAATVYPSVYGENHYGYWGQGTQVTVSS	high polyreactivity
QVQLVESGGGLVQAGGSLRLICAASGSIFLFNAMGWYRQAPGKERQLVAAISKSGGSTHYADSVKGRFTISRDNAKNTVYLQMNSLKPEDSAVYYCAARVGDLGSQKTDSVYRVYYWGQGTQVTVSS	low polyreactivity
QVQLVESGGGLVQAGGSLRLICAASGSIFLLYDMGWYRQAPGKERELVAAITWSGGSTYYADSVKGRFTISRDNAKNTVYLQMNSLKPEDTAVYYCAADEPYPTAYEYWGQGTQVTVSS	low polyreactivity
QVQLVESGGGLVQAGGSLRLICAASGSIFLNYAMGWYRQAPGKERELVASLRRIGGRTFYADSVKGSFTISRDNAKNTVYLQMNSLKPEDTAVYYCAAEYYYGLTVEYWGQGTQVTVSS	high polyreactivity
QVQLVESGGGLVQAGGSLRLICAASGSIFPANVMGWYRQAPGKERELVAVISSSGGRTFYADSVKGRFTISRDNAKNTVYLQMNSLKPDDTAVYYCAATIYDYKRALKYYYWGLGTQVTVSS	high polyreactivity
